Results taken from patent US20120015890A1 (ARGOS THERAPEUTICS, published 2012).

Experiments:
[1] = target: the molecule itself; assay: SDS-PAGE with and without 2-mercaptoethanol; band at about 25 kDa without reducing agent
Method: The HPLC-purified recombinant human CD83ext protein (cloning and expression as described in example 1, purification as described in example 2 was analysed with the Laemmli SDS-PAGE system. To identify possible oligomeric forms of CD83 2-mercaptoethanol (ME) has been omitted from the sample buffer (2% SDS, 5% 2-Mercaptoethanol (ME), 10% Glycerol, 0.2 mM EDTA, 0.005% bromphenolblue, 62.5 mM Tris pH6.8). In the absence of this reducing agent, the intra- and interchain disulfide bonds of CD83 remain intact. The reduced and non-reduced protein samples were both incubated for 5 min at 95° C. and compared with each other by SDS-PAGE (see FIG. 7). During electrophoresis, the mobilities of oligomeric SDS-proteins is lower than those of their fully denatured SDS-polypeptide components. Without ME an upper band appears at the estimated size of a CD83-dimer (about 25 kDa), while the monomeric CD83 band (about 14 kDa) is fainting. Westernblot analysis using the anti-CD83 antibody CD83-1G11 (Lechmann et al., Protein Expression and Purification 24:445-452 (Mar. 2, 2002)) confirmed the specificity of the protein bands. Thus, hCD83ext is a disulfide-linked homodimeric protein.

[2] = target: the molecule itself; assay: SDS-PAGE with and without 2-mercaptoethanol
From the text: The purified hCD83ext_mut129_Cys to Ser was compared to purified hCD83ext by SDS-PAGE (see FIG. 9). […] Under non-reducing conditions no CD83-dimer could be detected with the mutant CD83 protein. So the 5th carboxyterminal cysteine of the extracellular CD83 domain is necessary for the creation of homodimers. Westernblot analysis confirmed specificity of the bands (data not shown).

B1: recombinant human CD83ext protein (soluble extracellular domain of human CD83) (receptor)
chain: GSPGTPEVKVACSEDVDLPCTAPWDPQVPYTVSWVKLLEGGEERMETPQEDHLRGQHYHQKGQNGSFDAPNERPYSLKIRNTTSCNSGTYRCTLQDPDGQRNLSGKVILRVTGCPAQRKEETFKKYRAEI
notes: Expressed in E. coli as a GST fusion and cleaved with thrombin; also called hCD83ext; soluble CD83
binding result [1]: binds

B2: hCD83ext_mut129_Cys to Ser (receptor)
chain: GSPGTPEVKVACSEDVDLPCTAPWDPQVPYTVSWVKLLEGGEERMETPQEDHLRGQHYHQKGQNGSFDAPNERPYSLKIRNTTSCNSGTYRCTLQDPDGQRNLSGKVILRVTGSPAQRKEETFKKYRAEI
notes: Expressed in E. coli as a GST fusion and cleaved with thrombin; Monomeric; also called hCD83ext mut129 Cys to Ser mutant
binding result [2]: no binding
